The data set deals with the molecule itself. As to the kind of experiment: cross-linking; glutaraldehyde cross-linking of Mtb LexA with or without 3-nPBA (protein to inhibitor 1:100); stopped with 25 mM DTT; 12% SDS-PAGE.

B1: Mycobacterium tuberculosis LexA (natural protein)
chain: MNDSNDTSVAGGAAGADSRVLSADSALTERQRTILDVIRASVTSRGYPPSIREIGDAVGLTSTSSVAHQLRTLERKGYLRRDPNRPRAVNVRGADDAALPPVTEVAGSDALPEPTFVPVLGRIAAGGPILAEEAVEDVFPLPRELVGEGTLFLLKVIGDSMVEAAICDGDWVVVRQQNVADNGDIVAAMIDGEATVKTFKRAGGQVWLMPHNPAFDPIPGNDATVLGKVVTVIRKV
notes: also called Mtb LexA; WT Mtb LexA
With B1, the binding result is “binds”.

Values taken from paper PMC11408154, “Anti-mutagenic agent targeting LexA to combat antimicrobial resistance in mycobacteria” (The Journal of Biological Chemistry, 2024).
